Source: publication PMC10208891

What was measured:
[1] = anti-Flag immunofluorescence with DAPI; details: glycan lost; control: SFB-YTHDF1-WT, untreated
[2] = nuclear and cytoplasmic fractionation, immunoblot; details: glycan lost; control: SFB-YTHDF1-WT

B1: YTH domain family 1 (YTHDF1): AFA (protein)
parent chain: MSATSVDTQRTKGQDNKVQNGSLHQKDTVHDNDFEPYLTGQSNQSNSYPSMSDPYLSSYYPPSIGFPYSLNEAPWSTAGDPPIPYLTTYGQLSNGDHHFMHDAVFGQPGGLGNNIYQHRFNFFPENPAFSAWGTSGSQGQQTQSSAYGSSYTYPPSSLGGTVVDGQPGFHSDTLSKAPGMNSLEQGMVGLKIGDVSSSAVKTVGSVVSSVALTGVLSGNGGTNVNMPVSKPTSWAAIASKPAKPQPKMKTKSGPVMGGGLPPPPIKHNMDIGTWDNKGPVPKAPVPQQAPSPQAAPQPQQVAQPLPAQPPALAQPQYQSPQQPPQTRWVAPRNRNAAFGQSGGAGSDSNSPGNVQPNSAPSVESHPVLEKLKAAHSYNPKEFEWNLKSGRVFIIKSYSEDDIHRSIKYSIWCSTEHGNKRLDSAFRCMSSKGPVYLLFSVNGSGHFCGVAEMKSPVDYGTSAGVWSQDKWKGKFDVQWIFVKDVPNNQLRHIRLENNDNKPVTNSRDTQEVPLEKAKQVLKIISSYKHTTSIFDDFAHYEKRQEEEEVVRKERQSRNKQ
- localisation_or_trafficking [1]: changes
- localisation_or_trafficking [2]: changes
